For assay [1], the target named is T1, human Hyper-IL-6 (HIL-6) (human).
T1 construct: soluble IL-6 receptor (sIL-6R), human; flexible peptide linker; Interleukin 6 (IL-6), human; also called hHIL-6; source: recombinant, produced and purified as described (27)
The assay can be described thus: SPR; Fc fusion captured on a Protein A sensor chip, cytokine injected (HIL-6, HIL-12 50 to 0.1 nM, 30 μl/min, 120 s association, 300 s dissociation); 25 °C, PBS pH 7.4, 0.05% surfactant P20; 1:1 binding model; Biacore X100. The conditions noted are these: both partners purified.

For assay [2], the target named is T1, human Hyper-IL-6 (HIL-6). The experiment in a line: cell-based or functional assay.
Assay [3] has as its target T2, Hyper IL-12 (HIL-12) (human).
T2 construct: IL-12/IL-23 subunit p40, human; flexible linker; IL-12 subunit p35, human; also called hHIL-12; FLAG-tagged HIL-12
The experiment in a line: SPR; Fc fusion captured on a Protein A sensor chip, cytokine injected (HIL-6, HIL-12 50 to 0.1 nM, 30 μl/min, 120 s association, 300 s dissociation); 25 °C, PBS pH 7.4, 0.05% surfactant P20; 1:1 binding model; Biacore X100. The conditions noted are these: both partners purified.

Assay [4] deals with T2, Hyper IL-12 (HIL-12). The experiment in a line: cell-based or functional assay.

B1: cs130-TNF^VHHFc (Fc fusion)
chain: ELLDPCGYISPESPVVQLHSNFTAVCVLKEKCMDYFHVNANYIVWKTNHFTIPKEQYTIINRTASSVTFTDIASLNIQLTCNILTFGQLEQNVYGITIISGLPPEKPKNLSCIVNEGKKMRCEWDGGRETHLETNFTLKSEWATHKFADCKAKRDTPTSCTVDYSTVYFVNIEVWVEAENALGKVTSDHINFDPVYKVKPNPPHNLSVINSEELSSILKLTWTNPSIKSVIILKYNIQYRTKDASTWSQIPPEDTASTRSSFTVQDLKPFTEYVFRIRCMKEDGKGYWSDWSEEASGITYEDDVQFVESGGGSVHAGGSLRLNCATSGYIYSTYCMGWFRQAPGKEREGVAHIYTNSGRTYYADSVKGRFTISQDNAKNTVYLQMNSLKPEDTAIYYCAARPSIRCASFSATEYKDWGQGTQVTVSSGGGGSGGGGSGGGGTG
On to B1, for which, in the assay with human Hyper-IL-6 (HIL-6) [1], the Kd came out at 0.0488 nM, the koff is 8.55e-05 s⁻¹ and the kon stood at 1.75e+06 M⁻¹ s⁻¹. Further, the “IC50 of inhibition of proliferation of Ba/F3-gp130 cells stimulated with 150 ng/ml IL-6 and 300 ng/ml sIL-6R (IL-6 trans-signaling via gp130; separate IL-6 and sIL-6R, not the fused HIL-6)” value with human Hyper-IL-6 (HIL-6) [2] was 0.51 nM.

B2: cs130-IL-12/23^VHHFc (Fc fusion)
chain: ELLDPCGYISPESPVVQLHSNFTAVCVLKEKCMDYFHVNANYIVWKTNHFTIPKEQYTIINRTASSVTFTDIASLNIQLTCNILTFGQLEQNVYGITIISGLPPEKPKNLSCIVNEGKKMRCEWDGGRETHLETNFTLKSEWATHKFADCKAKRDTPTSCTVDYSTVYFVNIEVWVEAENALGKVTSDHINFDPVYKVKPNPPHNLSVINSEELSSILKLTWTNPSIKSVIILKYNIQYRTKDASTWSQIPPEDTASTRSSFTVQDLKPFTEYVFRIRCMKEDGKGYWSDWSEEASGITYEDDVQFVESGGGSVHAGGSLRLNCATSGYIYSTYCMGWFRQAPGKEREGVAHIYTNSGRTYYADSVKGRFTISQDNAKNTVYLQMNSLKPEDTAIYYCAARPSIRCASFSATEYKDWGQGTQVTVSSRENLYFQMKYLLPTAAAGLLLLAAQPAMAEVQLVESGGGLVQAGGSLRLSCAASGRTFSWSAVGWFRQAPGKEREFVAAIRWSGGSPYYADSVKDRFTISRDNAKNTVYLQMNSLRPEDTAVYLCGETSLFPTSRGSHYDTWGQGTQVTVSSGSGWSHPQFEK
In the assay with Hyper IL-12 (HIL-12) [3], B2 returned a Kd of 0.23 nM, a koff of 0.000163 s⁻¹ and a kon of 710000 M⁻¹ s⁻¹. In the assay with human Hyper-IL-6 (HIL-6) [1], the Kd worked out at 0.0289 nM, the koff was 7.02e-05 s⁻¹ and the kon amounted to 2.43e+06 M⁻¹ s⁻¹. The “IC50 of inhibition of proliferation of Ba/F3-hIL-12Rβ1-hIL-12Rβ2 cells induced by 10 ng/ml HIL-12, 72 h, CellTiter-Blue” value with Hyper IL-12 (HIL-12) [4] is 7.81 nM. In the assay with human Hyper-IL-6 (HIL-6) [2], the “IC50 of inhibition of proliferation of Ba/F3-gp130 cells stimulated with 150 ng/ml IL-6 and 300 ng/ml sIL-6R (IL-6 trans-signaling via gp130; separate IL-6 and sIL-6R, not the fused HIL-6)” value stood at 0.56 nM.

A word on the Kd: it is the equilibrium constant for the complex coming apart. A lower Kd goes with higher affinity. As a reminder, the koff is a measure of how fast the partners let go of each other. Read a high koff as a short-lived complex. Usually kon stands for the second-order rate constant of association. Higher therefore signals fast association.

Source of the values: article PMC10652096 (The Journal of Biological Chemistry, 2023).
